The values below come from PMC3182218, “Obesity Risk Gene TMEM18 Encodes a Sequence-Specific DNA-Binding Protein” (PLoS ONE, 2011).

The data set deals with the molecule itself. The data set is described as follows: dimer-sized band on SDS-PAGE Western blot; TMEM18 purified from insect cells, bound to DNA-cellulose, washed and eluted with 0.5 M, 1 M and 2 M salt; anti-Flag Western blot; dimer form approx. 34 kDa against monomer form approx. 17 kDa. Background: In western blotting, separated proteins are transferred to a membrane and probed.

B1: TMEM18 produced in insect cells (N-terminal Flag-tag followed by eight histidines) (natural protein)
chain: not shown
notes: TMEM18, 140 amino acids; cloned into pK509.3 vector; Flag-tag first, then eight histidine repeats, then TMEM18; detected by anti-Flag Western blot; also called histidine and Flag-tagged TMEM18; source: Sf9 or Tn5 insect cells (baculovirus), purified (nuclear extract in dodecyl maltoside, Ni-sepharose); not shown: Flag, N-terminal, kept
In the case of B1, the binding result is recorded as “binds”.
